{
  "source": "patent US20160083442",
  "data": [
    {"substance": "purified p38 proteins activated by incubation with active Zap70", "values": [
      {"measurement": "phosphorylation of ATF2 (in vitro kinase assay, [32P]ATP, phosphorimager)", "setting": "(11R)-71-85", "result": "incubation with (11R)-71-85, but not (11R)-Ctrl, led to a decrease in phosphorylation of ATF2. In addition, the decrease in ATF2 phosphorylation was dependent on the dose of (11R)-71-85"},
      {"measurement": "phosphorylation of ATF2 (in vitro kinase assay, [32P]ATP, phosphorimager)", "setting": "(11R)-Ctrl", "result": "incubation with (11R)-71-85, but not (11R)-Ctrl, led to a decrease in phosphorylation of ATF2"}
    ]}
  ]
}
